The record followed here is patent publication US20140377215A1 (BOARD OF TRUSTEES OF THE UNIVERSITY OF ARKANSAS, published 2014).

The target of experiment [1] is [11PROXYL-(POG)3PCG(POG)4]3. Kind of experiment: 1H-15N HSQC NMR titration.
Another experiment concerns the target [(POG)3PCG(POG)4]3. Kind of experiment: 1H-15N HSQC NMR titration.

B1: collagen-binding domain (CBD), s3b (Gly893-Lys1008) peptide derived from Clostridium histolyticum cl (other)
chain: GNEKLKEKENNDSSDKATVIPNFNTTMQGSLLGDDSRDYYSFEVKEEGEVNIELDKKDEFGVTWTLHPESNINDRITYGQVDGNKVSNKVKLRPGKYYLLVYKYSGSGNYELRVNK
notes: range 893-1008
B1: the binding result in experiment [1] and in experiment [(POG)3PCG(POG)4]3 was “binds” in each case.
